Test results from paper PMC4609183.

The substances below were run against R0RBR parkin (residues 141–465, lacking Ubl domain and linker) (human) (UniProt O60260) (assay: ITC; 50 μM R0RBR, full-length parkin or phosphoparkin titrated with Ub, Ubl or their variants; 25°C; 50 mM HEPES, 50 mM NaCl, 250 μM TCEP pH 7.5 or 50 mM HEPES, 150 mM NaCl, 0.5 mM TCEP pH 8.0; single-site model).
Work on “parkin Ubl domain S65D (from UniProt O60260 144-465) (domain or fragment)” yielded a Kd of 5 µM, a dH of -9.08 kcal/mol and a stoichiometry N of 1.03. With “parkin Ubl domain S65E (domain or fragment)” the Kd was 5.3 µM, the dH was -11 kcal/mol and the stoichiometry N was 0.98. With “phosphorylated parkin Ubl domain (domain or fragment)” the Kd was 26 µM, the dH was -3.82 kcal/mol and the stoichiometry N was 1.04.
